Measurements from US20060217306A1, “Systemic treatment of infections with defensins” (Novozymes A/S, priority 2005, published 2006).
Several values for one entry are separate records, joined by “and”; a condition that tells them apart may be missing. Equal entries are not always repeated. No end group written: not given here.

What was measured:
S. pneumoniae 68034 = test: Survival after peritoneal infection with S. pneumoniae 68034; type: in vivo; settings: s.c. 10 mg/kg BID for one or two days, groups of eight mice; vehicle 0/8, P<0.0002
Method: (§1) Three different pneumococcal strains were employed in this study (6A, D39 and 68034). Three mice per sampling point were inoculated with a specific S. pneumoniae i.p., and were treated 1 hour later with a single dose of 10 mg/kg Plectasin. Peritoneal wash was sampled for microbial counts prior to treatment (T=0), and at T=2 and T=5 hrs after. The colony counts are listed below for all three strains.
Treatment with Plectasin s.c. 10 mg/kg was initiated one hour after inoculation as described in Example 4A above. The following dosing regimens were investigated in groups of eight mice: vehicle treatment, Plectasin BID for one or two days. The survival fraction at seven days post-infection was 6/8 for Plectasin treated mice and 0/8 for vehicle treated mice (P<0.0002).

[1] = Systemic availability: in vivo kinetics, serum concentration by LCMSMS; parameters: species or system NMRI female mice; settings: for Serum concentration: 14 mg/kg single dose, individual mice; for Maximum observed mean concentration / Time of maximum observed mean concentration: serum
Method: The in vivo kinetics of plectasin was investigated in NMRI female mice, 25-30 gram (Harlan Scandinavia Aps), after a single 14 mg/kg dose, administered by either intravenous, subcutaneous or intraperitoneal routes. Plectasin concentrations in serum samples were determined 5, 15, 30, 60, 120 and 180 minutes after dosing, using two mice at each time point. At each time point, urine was collected, then mice were anaesthetized with CO2 and blood collected. The blood samples were centrifuged and serum collected. The concentration of plectasin in serum and urine were determined by LCMSMS.
The maximum observed mean concentrations for i.v., s.c. and i.p. dosing were: 95 mg/L after 5 min., 55 and 34 mg/L after 30 min., respectively.

S. pneumoniae strain D39 [2] = test: Treatment of pneumococcal pneumonia, colony counts in lung homogenates; type: in vivo, mice; settings: for Colony counts in lung homogenates: one day after treatment, individual mice
Method: Six to seven mice per sampling point (12 in the no-treatment group) were inoculated with S. pneumoniae (data only shown for strain D39) via the nasopharynx, and 24 hrs later the animals received Plectasin 10 mg/kg or penicillin 30 mg/kg.

[3] = tested on: S. pneumoniae strain 68034; test: Treatment of pneumococcal peritoneal infection, colony counts in peritoneal wash, strain 68034; type: in vivo, mice; settings: for Colony counts: strain 68034, peritoneal wash, individual mice
Method: as §1

S. pneumoniae strain 6A = test: Treatment of pneumococcal peritoneal infection, colony counts in peritoneal wash, strain 6A; type: in vivo, mice; settings: for Colony counts: peritoneal wash, individual mice
Method: as §1

S. pneumoniae strain D39 [4] = test: Treatment of pneumococcal peritoneal infection, colony counts in peritoneal wash, strain D39; type: in vivo, mice; settings: for Colony counts: strain D39, peritoneal wash, individual mice
Method: as §1

[5] = Single dose intravenous toxicity study in the mouse / maximum tolerable dose; type: in vivo; settings: 125 mg/kg single i.v. dose
Method: The study, to determine the maximum tolerable dose in mice, should be initiated with a sighting study to select the appropriate dose level for the main study. For example, six dose levels could be investigated using one male and one female mouse at each dose level.
On the basis of any signs of toxicity, the selected dose is administered to five male and five female mice as a single intravenous dose in a dose volume of 10 ml/kg. The dose should be administered slowly in the tail vein (e.g., 20 seconds per injection using a 1 ml syringe with a 25G hypodermic needle). All animals should be observed for any signs of toxicity after 15 minutes, 1 hour, 3 hours, 6 hours and 24 hours after administration.
A single intravenous dose was administered slowly in the tail vein (20 seconds per injection) using a 1 ml syringe with a 25G hypodermic needle to 5 male and 5 female mice. […] Body weight was recorded on Day 1, 2, 8 and 15. At termination of the study gross necropsy examination of all animals was carried out.

S. pneumoniae D39 = test: Survival after peritoneal infection with S. pneumoniae D39; type: in vivo; settings: groups of eight mice, vehicle 0/8
Method: as §1
Treatment with Plectasin s.c. 10 mg/kg was initiated one hour after inoculation as described in Example 4A above. The following dosing regimens were investigated in groups of eight mice: vehicle treated, Plectasin once daily (OD) for one day, twice daily (BID) for one day or BID for two days. […] The survival fraction of the vehicle treated control group was 0/8 mice (P<0.0002).

[6] = Stability in human serum; residual activity by radial diffusion assay with Staphylococcus carnosus; type: in vitro ADME; settings: 37° C.; for Activity (%) 10% serum / Activity (%) 90% serum: 100 mg/L; for Activity (%) 10% serum: 10% human serum; for Activity (%) 90% serum: 90% human serum
Method: To assess the stability of the defensins in human serum, according to the invention, a solution of 100 mg/L of a defensin in fresh normal human serum is incubated at 37 degrees Celsius for 0, 1, 3, 6 and 24 hours. Residual activity is measured by performing radial diffusion assays with a sensitive indicator organism (e.g., Staphylococcus carnosus or E. coli); by performing a quantification by HPLC, LCMSMS; or by performing various ELISA techniques well known to a person skilled in the art.
To assess serum stability, Plectasin (100 mg/L) was incubated at 37° C. in 10% and 90% fresh normal human serum for 0, 1, 3, 6 & 24 hours. Residual activities were measured by performing radial diffusion assays with Staphylococcus carnosus.

[7] = 2 hours after single dose 10 mg/kg, 10 mg/kg
[8] = 5 hours after single dose 10 mg/kg, 10 mg/kg

Plectasin: Defensin shown as amino acids 1 to 40 of SEQ ID NO: 2 in international patent application WO 03/044049; defensin antimicrobial peptide (GFGCNGPWDEDDMQCHNHCKSIKGYKGGYCAKGGFVCKCY; ends and bridges not checked; cysteine pairing not given here; UniProt Q53I06 56-95, looked up)
Survival fraction at seven days post-infection (S. pneumoniae 68034): 6/8 | Terminal half-life ([1]; 14 mg/kg, mice, estimated): 49 to 54 min | Serum concentration ([1]; IP, 5 min, 14 mg/kg): 9400 ng/mL and 7200 ng/mL | Serum concentration ([1]; IP, 15 min, 14 mg/kg): 26000 ng/mL and 31600 ng/mL | Serum concentration ([1]; IP, 30 min, 14 mg/kg): 32500 ng/mL and 35400 ng/mL | Serum concentration ([1]; IP, 60 min, 14 mg/kg): 27700 ng/mL and 14300 ng/mL | Serum concentration ([1]; IP, 120 min, 14 mg/kg): 10900 ng/mL and 20300 ng/mL | Serum concentration ([1]; IP, 180 min, 14 mg/kg): 2600 ng/mL and 5600 ng/mL | Serum concentration ([1]; IV, 5 min, 14 mg/kg): 92100 ng/mL and 97900 ng/mL | Serum concentration ([1]; IV, 15 min, 14 mg/kg): 58800 ng/mL and 58100 ng/mL | Serum concentration ([1]; IV, 30 min, 14 mg/kg): 35700 ng/mL and 27300 ng/mL | Serum concentration ([1]; IV, 60 min, 14 mg/kg): 14900 ng/mL and 15600 ng/mL | Serum concentration ([1]; IV, 120 min, 14 mg/kg): 5300 ng/mL and 4900 ng/mL | Serum concentration ([1]; IV, 180 min, 14 mg/kg): 2300 ng/mL and 3500 ng/mL | Serum concentration ([1]; SC, 5 min, 14 mg/kg): 20300 ng/mL and 25400 ng/mL | Serum concentration ([1]; SC, 15 min, 14 mg/kg): 49400 ng/mL and 56600 ng/mL | Serum concentration ([1]; SC, 30 min, 14 mg/kg): 50300 ng/mL and 60000 ng/mL | Serum concentration ([1]; SC, 60 min, 14 mg/kg): 24800 ng/mL and 27200 ng/mL | Serum concentration ([1]; SC, 120 min): 29800 ng/mL | Serum concentration ([1]; SC, 180 min, 14 mg/kg): 4600 ng/mL and 7200 ng/mL | Maximum observed mean concentration ([1]; i.p., 14 mg/kg): 34 mg/L | Time of maximum observed mean concentration ([1]; i.p., 14 mg/kg): 30 min | Concentration-time behavior ([1]; i.v. bolus administration, WinNonlin): two-compartment behavior | Maximum observed mean concentration ([1]; i.v., 14 mg/kg): 95 mg/L | Time of maximum observed mean concentration ([1]; i.v., 14 mg/kg): 5 min | Maximum observed mean concentration ([1]; s.c., 14 mg/kg): 55 mg/L | Time of maximum observed mean concentration ([1]; s.c., 14 mg/kg): 30 min | Colony counts compared to no treatment (S. pneumoniae strain D39 [2]; strain D39, 10 mg/kg): significant reduction | Colony counts in lung homogenates (S. pneumoniae strain D39 [2]; strain D39, 10 mg/kg given 24 hrs after inoculation): 3E1 (2×) and 5.25E3 and 6.75E2 and 9.75E4 and 2.25E3 and 1.5E2 | Colony counts compared to vehicle treated mice ([3]; strain 68034, 10 mg/kg, P<0.0001): significant lower | Colony counts ([3]; 0 hours (prior to treatment)): 3E5 and 5.5E5 and 3.5E5 | Colony counts [3, 7]: 3.25E4 (2×) and 1.5E4 | Colony counts [3, 8]: 4E2 and 1E2 and 7.5E1 | Colony counts compared to vehicle treated mice (S. pneumoniae strain 6A; 10 mg/kg, P<0.0001): significant lower | Colony counts (S. pneumoniae strain 6A; 0 hours (prior to treatment)): 1.1E6 and 1.55E6 and 1E6 | Colony counts (S. pneumoniae strain 6A; [7]): 3.5E5 (2×) and 1.78E5 | Colony counts (S. pneumoniae strain 6A; [8]): 2.13E4 and 1.43E3 and 1.45E3 | Colony counts compared to vehicle treated mice (S. pneumoniae strain D39 [4]; strain D39, 10 mg/kg, P<0.0001): significant lower | Colony counts (S. pneumoniae strain D39 [4]; 0 hours (prior to treatment)): 3.25E6 and 1.8E6 (2×) | Colony counts (S. pneumoniae strain D39 [4]; [7]): 2.75E4 and 1.1E4 and 2E4 | Colony counts (S. pneumoniae strain D39 [4]; [8]): 2.5E2 and 3.5E2 and 1E2 | Finding at the injection site ([5]; 10 ml/kg, 15 minutes after treatment, 5 male and 5 female mice): all animals had a discoloration at the injection site | Other signs of toxicity ([5]; 10 ml/kg, observed over 14 days): No other signs of toxicity were observed | Gross necropsy ([5]; at termination of the study): no abnormalities | Survival over the 7-day study period (S. pneumoniae D39; s.c. 10 mg/kg BID for two days): All mice treated with Plectasin survived | Survival over the 7-day study period (S. pneumoniae D39; s.c. 10 mg/kg once daily (OD) for one day): All mice treated with Plectasin survived | Survival over the 7-day study period (S. pneumoniae D39; s.c. 10 mg/kg twice daily (BID) for one day): except for one mouse | Activity (%) 10% serum ([6]; 0 hours): 100% | Activity (%) 10% serum ([6]; 1 hour): ˜100% | Activity (%) 10% serum ([6]; 3 hours): ˜100% | Activity (%) 10% serum ([6]; 6 hours): ˜100% | Activity (%) 10% serum ([6]; 24 hours): ˜100% | Activity (%) 90% serum ([6]; 0 hours): 100% | Activity (%) 90% serum ([6]; 1 hour): ˜100% | Activity (%) 90% serum ([6]; 3 hours): ˜100% | Activity (%) 90% serum ([6]; 6 hours): ˜100% | Activity (%) 90% serum ([6]; 24 hours): ˜100% | Residual activity (in words) ([6]; after 24 hours of incubation in 90% human serum): Full activity was retained

penicillin [reference compound]
Colony counts compared to no treatment (S. pneumoniae strain D39 [2]; strain D39, 30 mg/kg): significant reduction | Colony counts in lung homogenates (S. pneumoniae strain D39 [2]; strain D39, 30 mg/kg given 24 hrs after inoculation): 7.5E1 (3×) and 4.5E3 and 2.25E4 and 4.89E5
